In patent US11911450B2, “Method for managing pain” (UNIVERSITY OF MIAMI, priority 2017, dated 2024):
Entries after “also recorded” stand apart in the source; their conditions may differ.

B1: Car10: carbonic anhydrase 10, rodent ortholog, overexpressed (V5-tagged) protein (protein)
chain: MEIVWEVLFLLQANFIVCISAQQNSPKIHEGWWAYKEVVQGSFVPVPSFWGLVNSAWNLCSVGKRQSPVNIETSHMIFDPFLTPLRINTGGRKVSGTMYNTGRHVSLRLDKEHLVNISGGPMTYSHRLEEIRLHFGSEDSQGSEHLLNGQAFSGEVQLIHYNHELYTNVTEAAKSPNGLVVVSIFIKVSDSSNPFLNRMLNRDTITRITYKNDAYLLQGLNIEELYPETSSFITYDGSMTIPPCYETASWIIMNKPVYITRMQMHSLRLLSQNQPSQIFLSMSDNFRPVQPLNNRCIRTNINFSLQGKDCPNNRAQKLQYRVNEWLLK
modifications: left off: small tags and cut ends
notes: carbonic anhydrase 10, rodent ortholog, overexpressed (V5-tagged) protein
B2: CA10: human carbonic anhydrase 10, overexpressed (V5-tagged) protein; SEQ ID NO: 9 (protein)
chain: B1 chain
modifications: V5 tag

Assays:
[1] = tested on: ITPR1-mediated cytoplasmic calcium release; assay: ATP-induced cytoplasmic calcium release in HEK293 cells (Fura-2 imaging); assay type: cell-based, human; details: 1 μM ATP, overexpression vs empty vector
Experimental: Cell culture and transfections: Human neuronal-derived (e.g., NBL), human non-neuronal derived (e.g., HEK293) cells, or dispersed rodent primary DRG cells can be used. HEK293 cells (cat #CRL-1573 ATCC Manassas, VA) were cultured in Dulbecco's modified Eagle's medium (DMEM-Glutamax cat #0566; Invitrogen) supplemented with 10% fetal bovine serum, FBS (cat #16140 ThermoFisher scientific, Waltham, MA) and 1% penicillin/streptomycin (cat #15140 ThermoFisher scientific, Waltham, MA). Cells were seeded in six-well plates at density of 1.0×10^5 cells per well. The following day, cells were transfected with plasmids via lipofectamine LTX reagent and plus (cat #15338 ThermoFisher scientific, Waltham, MA). For each transfection 2 μg of AAV2-ITR (control), AAV2-V5-Car10, or AAV2-V5-CA10 vectors was used. In various embodiments of the disclosure described herein, 2 μg of expression vectors (including positive and negative controls) in instances when AAV2 is not the viral vector employed.
(§1) Pharmacodynamics—Bioassay of Calcium Release: Fifteen mm glass coverslips (cat #72228 Electron Microscopy Sciences, Hatfield, PA) were coated with poly-D-Lysine (Sigma) followed by Laminin and 1×10^5 cells were seeded on each coverslip. Twenty-four hrs later, cells were transfected with AAV2-ITR, AAV2-V5-Car10, or AAV2-V5-CA10 vectors as previously described. In embodiments wherein AAV2 is not employed, other expression vectors (including viral vectors) are used. Fura-2AM (cat #F1221 ThermoFisher scientific, Waltham, MA) was dissolved in DMSO (50 μg in 50 μl) and 1% pluronic acid-127 (cat #P2443 Sigma, St Louis, MO) as the stock solution. Forty eight hrs after seeding, cells were loaded with 2 μM Fura-2AM dye for 45 min at room temperature in the dark in a standard Ca+2 buffer solution containing: 125 mM NaCl, 2 mM MgCl, 4.5 mM KCl, 10 glucose, 20 mM HEPES, 2 mM CaCl2, pH 7.4.25. Following dye loading, coverslips were washed with Ca^+2 buffer solution. […] Regions of interest over the field of view were selected and the mean pixels intensity at each frame was measured. Data was plotted as ratio fluorescence intensity versus time and subsequently converted to a relative scale.
To further examine whether FLAG-CA8-204 (data not shown), V5-Car10 and V5-CA10 overexpression can inhibit ATP-induced calcium release, HEK293 cells were infected with each if these constructs and real-time intracellular calcium concentrations at baseline and in response to ATP stimulation were measured (FIG. 2). […]

[2] = molecular target: T1, RYR1 (Homo sapiens, UniProt P21817); assay: immunoprecipitation (anti-RYR1) and western blot (anti-V5) in NBL cells; assay type: binding; details: 48 h after transfection
T1 construct: NBL cells were transfected with AAV-V5-CA10 and AAV-V5-Car10 using Lipofectamin (LTX); endogenous in cells; host or cells: NBL cells transfected with V5-CA10 / V5-Car10 only
T1 sequence (P21817 whole entry): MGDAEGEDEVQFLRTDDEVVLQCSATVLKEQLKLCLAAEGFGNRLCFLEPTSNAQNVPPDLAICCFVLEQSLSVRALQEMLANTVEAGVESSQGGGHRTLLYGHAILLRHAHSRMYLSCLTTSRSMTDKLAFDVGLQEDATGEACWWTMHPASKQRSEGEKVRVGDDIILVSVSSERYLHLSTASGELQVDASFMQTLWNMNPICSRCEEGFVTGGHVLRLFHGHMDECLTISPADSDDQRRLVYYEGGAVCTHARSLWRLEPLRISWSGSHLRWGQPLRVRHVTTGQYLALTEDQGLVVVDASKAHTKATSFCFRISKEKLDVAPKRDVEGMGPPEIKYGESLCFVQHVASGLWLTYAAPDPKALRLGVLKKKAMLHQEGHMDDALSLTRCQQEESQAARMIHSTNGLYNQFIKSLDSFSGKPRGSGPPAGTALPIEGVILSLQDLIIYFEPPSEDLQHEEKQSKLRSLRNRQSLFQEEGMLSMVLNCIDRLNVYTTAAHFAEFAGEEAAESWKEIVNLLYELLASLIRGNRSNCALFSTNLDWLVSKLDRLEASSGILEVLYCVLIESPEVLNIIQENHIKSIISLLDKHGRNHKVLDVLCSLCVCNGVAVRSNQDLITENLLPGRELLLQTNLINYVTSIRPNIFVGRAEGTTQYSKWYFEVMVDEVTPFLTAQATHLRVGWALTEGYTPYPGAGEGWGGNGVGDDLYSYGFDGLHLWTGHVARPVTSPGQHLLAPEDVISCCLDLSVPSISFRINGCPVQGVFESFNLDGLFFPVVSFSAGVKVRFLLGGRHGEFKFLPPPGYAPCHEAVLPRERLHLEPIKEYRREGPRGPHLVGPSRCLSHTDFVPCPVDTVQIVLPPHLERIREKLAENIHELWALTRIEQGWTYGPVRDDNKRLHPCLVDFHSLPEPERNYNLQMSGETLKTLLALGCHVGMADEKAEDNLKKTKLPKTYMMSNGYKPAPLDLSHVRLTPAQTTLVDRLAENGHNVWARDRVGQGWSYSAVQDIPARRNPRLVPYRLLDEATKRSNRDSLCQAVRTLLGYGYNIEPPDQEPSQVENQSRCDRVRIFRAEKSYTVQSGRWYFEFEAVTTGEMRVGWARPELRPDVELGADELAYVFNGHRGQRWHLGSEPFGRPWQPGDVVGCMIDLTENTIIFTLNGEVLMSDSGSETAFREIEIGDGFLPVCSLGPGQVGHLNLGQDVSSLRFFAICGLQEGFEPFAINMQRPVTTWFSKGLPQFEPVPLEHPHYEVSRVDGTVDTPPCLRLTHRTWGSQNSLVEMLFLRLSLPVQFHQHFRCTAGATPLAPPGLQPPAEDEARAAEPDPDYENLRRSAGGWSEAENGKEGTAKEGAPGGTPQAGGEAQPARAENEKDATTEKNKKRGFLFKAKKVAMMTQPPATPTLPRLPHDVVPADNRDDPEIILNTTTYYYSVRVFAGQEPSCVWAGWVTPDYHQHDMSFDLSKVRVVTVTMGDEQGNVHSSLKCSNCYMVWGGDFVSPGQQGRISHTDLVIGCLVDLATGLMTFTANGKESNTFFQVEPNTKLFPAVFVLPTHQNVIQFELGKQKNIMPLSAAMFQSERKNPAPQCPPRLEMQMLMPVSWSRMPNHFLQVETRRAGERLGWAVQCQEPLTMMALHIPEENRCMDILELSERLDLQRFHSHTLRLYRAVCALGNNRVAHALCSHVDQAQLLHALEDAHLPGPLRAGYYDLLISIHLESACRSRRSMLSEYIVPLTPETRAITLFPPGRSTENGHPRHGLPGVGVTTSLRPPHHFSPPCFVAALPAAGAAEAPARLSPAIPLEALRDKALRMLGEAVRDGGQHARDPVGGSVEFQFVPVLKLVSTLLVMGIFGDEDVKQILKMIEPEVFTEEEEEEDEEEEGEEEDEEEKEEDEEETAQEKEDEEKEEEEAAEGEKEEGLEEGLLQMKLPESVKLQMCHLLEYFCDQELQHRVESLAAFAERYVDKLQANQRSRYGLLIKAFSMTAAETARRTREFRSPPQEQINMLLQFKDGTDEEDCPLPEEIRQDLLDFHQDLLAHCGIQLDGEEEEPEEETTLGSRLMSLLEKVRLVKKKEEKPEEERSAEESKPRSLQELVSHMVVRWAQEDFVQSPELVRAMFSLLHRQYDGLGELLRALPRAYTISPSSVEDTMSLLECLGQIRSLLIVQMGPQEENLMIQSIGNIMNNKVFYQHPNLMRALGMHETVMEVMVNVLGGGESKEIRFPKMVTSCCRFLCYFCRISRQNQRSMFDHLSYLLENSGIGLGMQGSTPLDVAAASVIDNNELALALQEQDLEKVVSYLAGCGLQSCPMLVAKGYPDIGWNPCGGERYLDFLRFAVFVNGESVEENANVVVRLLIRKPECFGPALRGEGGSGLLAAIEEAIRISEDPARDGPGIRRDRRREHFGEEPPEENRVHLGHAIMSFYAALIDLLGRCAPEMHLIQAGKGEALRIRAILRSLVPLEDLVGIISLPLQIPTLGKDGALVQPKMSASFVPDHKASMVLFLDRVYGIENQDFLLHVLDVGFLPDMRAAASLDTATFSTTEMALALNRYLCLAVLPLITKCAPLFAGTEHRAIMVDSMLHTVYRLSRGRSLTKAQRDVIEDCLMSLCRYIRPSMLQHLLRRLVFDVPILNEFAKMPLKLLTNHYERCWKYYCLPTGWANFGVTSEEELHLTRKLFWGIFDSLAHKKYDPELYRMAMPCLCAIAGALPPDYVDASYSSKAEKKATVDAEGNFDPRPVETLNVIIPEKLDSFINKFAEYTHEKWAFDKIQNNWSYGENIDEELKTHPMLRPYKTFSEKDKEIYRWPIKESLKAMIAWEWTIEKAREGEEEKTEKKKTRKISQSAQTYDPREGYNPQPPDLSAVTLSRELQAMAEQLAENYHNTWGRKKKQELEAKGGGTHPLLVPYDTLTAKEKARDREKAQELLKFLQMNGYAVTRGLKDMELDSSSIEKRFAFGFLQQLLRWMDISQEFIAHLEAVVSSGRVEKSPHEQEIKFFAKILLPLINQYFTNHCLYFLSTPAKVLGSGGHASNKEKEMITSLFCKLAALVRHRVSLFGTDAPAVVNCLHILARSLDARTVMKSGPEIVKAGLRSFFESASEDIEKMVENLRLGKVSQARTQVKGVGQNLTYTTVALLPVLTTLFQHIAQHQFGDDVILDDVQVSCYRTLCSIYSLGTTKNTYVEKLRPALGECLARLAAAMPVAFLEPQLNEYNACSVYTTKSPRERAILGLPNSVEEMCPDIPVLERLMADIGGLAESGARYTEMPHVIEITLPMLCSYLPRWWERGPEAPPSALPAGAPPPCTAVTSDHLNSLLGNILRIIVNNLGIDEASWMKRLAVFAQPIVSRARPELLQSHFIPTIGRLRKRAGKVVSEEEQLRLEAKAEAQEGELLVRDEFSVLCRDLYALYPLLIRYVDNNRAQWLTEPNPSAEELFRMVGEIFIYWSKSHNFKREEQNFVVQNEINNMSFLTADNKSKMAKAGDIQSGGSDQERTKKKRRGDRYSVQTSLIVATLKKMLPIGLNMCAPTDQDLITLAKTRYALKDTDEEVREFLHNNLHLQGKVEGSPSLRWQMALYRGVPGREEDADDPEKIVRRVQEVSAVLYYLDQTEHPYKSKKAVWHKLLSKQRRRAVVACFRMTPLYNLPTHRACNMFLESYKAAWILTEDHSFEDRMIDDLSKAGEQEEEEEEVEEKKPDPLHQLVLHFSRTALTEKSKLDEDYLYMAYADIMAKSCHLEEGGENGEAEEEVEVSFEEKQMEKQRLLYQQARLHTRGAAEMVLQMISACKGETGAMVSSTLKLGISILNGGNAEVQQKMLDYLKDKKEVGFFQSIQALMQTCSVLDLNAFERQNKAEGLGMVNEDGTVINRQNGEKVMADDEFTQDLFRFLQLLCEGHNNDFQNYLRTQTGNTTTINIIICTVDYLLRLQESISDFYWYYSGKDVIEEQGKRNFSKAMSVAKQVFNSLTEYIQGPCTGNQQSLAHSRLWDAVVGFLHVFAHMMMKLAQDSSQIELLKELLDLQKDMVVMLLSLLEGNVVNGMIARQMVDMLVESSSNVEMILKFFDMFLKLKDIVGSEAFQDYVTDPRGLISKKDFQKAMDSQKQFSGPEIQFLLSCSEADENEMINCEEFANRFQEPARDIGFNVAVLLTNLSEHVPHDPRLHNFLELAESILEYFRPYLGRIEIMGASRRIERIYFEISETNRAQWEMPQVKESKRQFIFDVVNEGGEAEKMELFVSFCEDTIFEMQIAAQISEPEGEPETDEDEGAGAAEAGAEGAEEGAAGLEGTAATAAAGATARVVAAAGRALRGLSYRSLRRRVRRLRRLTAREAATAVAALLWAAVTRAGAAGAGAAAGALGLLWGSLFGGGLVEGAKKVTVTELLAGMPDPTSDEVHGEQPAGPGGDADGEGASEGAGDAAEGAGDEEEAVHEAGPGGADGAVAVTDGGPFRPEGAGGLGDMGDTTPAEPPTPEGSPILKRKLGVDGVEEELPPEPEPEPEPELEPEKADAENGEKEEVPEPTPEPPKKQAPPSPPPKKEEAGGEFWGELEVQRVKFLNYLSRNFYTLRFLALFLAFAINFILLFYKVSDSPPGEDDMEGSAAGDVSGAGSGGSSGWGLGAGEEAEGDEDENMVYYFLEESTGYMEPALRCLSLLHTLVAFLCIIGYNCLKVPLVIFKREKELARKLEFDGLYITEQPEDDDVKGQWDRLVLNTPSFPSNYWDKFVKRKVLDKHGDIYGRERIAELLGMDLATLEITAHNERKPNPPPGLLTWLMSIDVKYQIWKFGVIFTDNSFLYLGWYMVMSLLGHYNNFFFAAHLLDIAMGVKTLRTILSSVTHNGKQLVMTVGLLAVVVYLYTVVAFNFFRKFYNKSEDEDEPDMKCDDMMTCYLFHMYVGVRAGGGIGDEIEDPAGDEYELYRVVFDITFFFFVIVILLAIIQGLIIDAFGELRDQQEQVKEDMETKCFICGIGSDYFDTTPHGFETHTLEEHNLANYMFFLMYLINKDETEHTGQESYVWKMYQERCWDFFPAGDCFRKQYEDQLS
Experimental: NBL cells were transfected with AAV-V5-CA10 and AAV-V5-Car10 using Lipofectamin (LTX). Cellular protein was extracted 48 h after transfection.
Immunoprecipitation (IP) and western blotting (WB) was utilized to detect binding. Rabbit anti-RYR1 was used for IP and chicken anti-V5 was used for WB analyses. About 1/10 of the IP protein was used for WB to show the V5 labeled CA10 or Car10 by WB. B-actin was used as a loading control. See FIG. 33, which establishes co-immunoprecipitation of CA10 and RYR.

[3] = tested on: RYR-dependent calcium release; assay: 5HT-induced RYR-dependent cytoplasmic calcium release in NBL cells (Fura2 imaging); assay type: cell-based, human; details: 50 μM 5HT, vs empty vector
Experimental: as §1
It was also determined that 5HT-induced RYR-dependent calcium release in NBL cells is inhibited by ryanodine. […]

| Molecule | ATP-induced cytoplasmic calcium release (Fura-2 340/380 ratio) [1] | ATP-induced cytoplasmic calcium release (Fura-2 340/380 ratio) ([1]; listed as V5-Car10) | binding to RYR1 (co-immunoprecipitation) [2] | 5HT-induced cytoplasmic calcium release, effect of overexpression ([3]; listed as V5-Car10) | ATP-induced cytoplasmic calcium release (Fura-2 340/380 ratio) ([1]; listed as V5-CA10) | 5HT-induced cytoplasmic calcium release, effect of overexpression ([3]; listed as V5-CA10) |
| --- | --- | --- | --- | --- | --- | --- |
| B1 | inhibits ITPR1-mediated cytoplasmic calcium release | inhibits ATP-induced cytoplasmic calcium release | binds | inhibited; also recorded: inhibits 50 μM 5HT-induced cytoplasmic calcium release | – | – |
| B2 | inhibits ITPR1-mediated cytoplasmic calcium release | – | co-immunoprecipitation; also recorded: binds | – | inhibits ATP-induced cytoplasmic calcium release | inhibited; also recorded: inhibits 50 μM 5HT-induced cytoplasmic calcium release |
